For 2 molecules, response (Pulldown/Input) results are on record in article PMC6400558 (2019).

This assay deals with T1, dynein intermediate chain (DIC), Q13409.
T1 chain: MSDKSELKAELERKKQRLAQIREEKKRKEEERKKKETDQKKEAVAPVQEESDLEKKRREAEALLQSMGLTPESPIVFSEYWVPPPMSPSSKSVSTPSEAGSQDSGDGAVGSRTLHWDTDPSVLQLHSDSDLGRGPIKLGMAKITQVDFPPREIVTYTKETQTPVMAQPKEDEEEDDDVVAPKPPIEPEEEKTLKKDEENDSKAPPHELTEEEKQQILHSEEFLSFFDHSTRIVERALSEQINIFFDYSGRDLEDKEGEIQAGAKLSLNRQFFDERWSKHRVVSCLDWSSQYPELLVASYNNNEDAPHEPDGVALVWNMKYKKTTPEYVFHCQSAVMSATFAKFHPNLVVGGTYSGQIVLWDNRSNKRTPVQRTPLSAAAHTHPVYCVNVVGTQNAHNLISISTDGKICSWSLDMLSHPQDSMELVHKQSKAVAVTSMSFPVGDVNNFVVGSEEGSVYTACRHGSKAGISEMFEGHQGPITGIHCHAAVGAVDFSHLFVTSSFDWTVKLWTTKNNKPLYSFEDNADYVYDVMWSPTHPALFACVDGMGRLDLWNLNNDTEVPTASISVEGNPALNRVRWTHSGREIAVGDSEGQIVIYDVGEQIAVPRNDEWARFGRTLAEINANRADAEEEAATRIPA
Description: MBP pull-down from HEK293T cell lysate, immunoblot, band intensity quantified. Conditions: chain shown with the change; n = 3; parent: est. 0.46; read off a plot.

B1: MBP-tagged Hook2 Hook+CC1 (N427) WT, Q96ED9 I150A (protein)
chain: MSVDKAELCGSLLTWLQTFHVPSPCASPQDLSSGLAVAYVLNQIDPSWFNEAWLQGISEDPGPNWKLKVSNLKMVLRSLVEYSQDVLAHPVSEEHLPDVSLIGEFSDPAELGKLLQLVLGCAISCEKKQDHIQRIMTLEESVQHVVMEAAQELMTKDTPDSLSPETYGNFDSQSRRYYFLSEEAEEGDELQQRCLDLERQLMLLSEEKQSLAQENAGLRERMGRPEGEGTPGLTAKKLLLLQSQLEQLQEENFRLESGREDERLRCAELEREVAELQHRNQALTSLAQEAQALKDEMDELRQSSERAGQLEATLTSCRRRLGELRELRRQVRQLEERNAGHAERTRQLEDELRRAGSLRAQLEAQRRQVQELQGQRQEEAMKAEKWLFECRNLEEKYESVTKEKERLLAERDSLREANEELRCAQLQ
In the case of B1, the response (Pulldown/Input) turned out to be 0.02.

B2: MBP-tagged Hook2 Hook+CC1 (N427) WT, Q96ED9 Q143A (protein)
chain: MSVDKAELCGSLLTWLQTFHVPSPCASPQDLSSGLAVAYVLNQIDPSWFNEAWLQGISEDPGPNWKLKVSNLKMVLRSLVEYSQDVLAHPVSEEHLPDVSLIGEFSDPAELGKLLQLVLGCAISCEKKQDHIQRIMTLEESVAHVVMEAIQELMTKDTPDSLSPETYGNFDSQSRRYYFLSEEAEEGDELQQRCLDLERQLMLLSEEKQSLAQENAGLRERMGRPEGEGTPGLTAKKLLLLQSQLEQLQEENFRLESGREDERLRCAELEREVAELQHRNQALTSLAQEAQALKDEMDELRQSSERAGQLEATLTSCRRRLGELRELRRQVRQLEERNAGHAERTRQLEDELRRAGSLRAQLEAQRRQVQELQGQRQEEAMKAEKWLFECRNLEEKYESVTKEKERLLAERDSLREANEELRCAQLQ
Consider B2, for which the response (Pulldown/Input) worked out at 0.02.
